B1: SEQ 14 (ssRNA)
RNA: GGGCUAAACGCUCUGAGGGAAACAGGUUUUGCUCCUCGGAGCGUGGACGCCC
modifications: 2'-F pyrimidines, 2'-OH purines
B2: SEQ 16(2) (ssRNA)
RNA: UCUGAGGGAAACAGGUUUUGCUCCUCGGA
modifications: 2'-F all pyrimidines and G8; 2'-OMe G4 A5 G6 G7 A9 A11 A13 G20 G27 G28 A29; 2'-OH A10 G14 G15
B3: SEQ 8 aptamer (ssRNA)
RNA: GGGUGGCAACAGGACAUGGAACGCGCCCCAACUGCUUGAAACAGGUUUUGCUGAGCAGUGAUGUGAGAUGCGUCUUCGUAC
modifications: 2'-F pyrimidines, 2'-OH purines

Biological target: Autotaxin (ENPP2, NPP2) (Homo sapiens, UniProt Q13822 Q13822:36-863)
Test: inhibition

Row | Binder | IC50 [nM]
1 | UCUGAGGGAAACAGGUUUUGCUCCUCGGA (mixed, as 16(21) with dC2) [SEQ 16(41)] | 2.2
2 | UCUGAGGGAAACAGGUUUUGCUCCUCGGA (mixed, as 16(47) with 5' 80 kDa PEG (GL2-800GS2)-ssH linker instead of 5' idT) [SEQ 16(48)] | 7.8
3 | UCUGAGGGUAACAGGUUAUGCUCCUCGGA (ssRNA, 2'-F pyrimidines, 2'-OH purines) [SEQ 26] | 510
4 | UCUGAGGGAAACAGGUUUUGCUCCUCGGA (mixed, as 16(49) with 2'-OMe C2 U3 U22 C24 U25) [SEQ 16(65)] | 0.3
5 | UAGAGAUGGAAACAGGUUUUGCUCAUCUCA (ssRNA, 2'-F pyrimidines, 2'-OH purines) [SEQ 50] | 21
6 | UCUGAGGGAAACAGGUUUUGCUCCUCGGA (mixed, as 16(21) with dT1) [SEQ 16(40)] | 0.9
7 | UCUGAGGGAAACAGGUUUUGCUCCUCGGA (mixed, as 16(4) with dT22) [SEQ 16(13)] | 52
8 | UCUGAGGGAAACAGGUUUUGCUCCUCGGA (mixed, as 16(4) with dT18) [SEQ 16(17)] | 46
9 | UCUGAGGGAAACAGGUUUUGCUCCUCGGA (mixed, as 16(4) with dC23 dC24) [SEQ 16(12)] | 37
10 | UGGGAAGGAAACAGGUUUUGCUCUUCACC (ssRNA, 2'-F pyrimidines, 2'-OH purines) [SEQ 53] | 30
11 | UCUGAGGGAAACAGGUUUUGCUCCUCGGA (mixed, as 16(48) with PS at A10) [SEQ 16(49)] | 1.6
12 | UCUGAGGGAAACAGGUUUUGCUCCUCGGA (mixed, as 16(21) with 5' 80 kDa PEG (GL2-800GS2)-ssH linker instead of 5' idT) [SEQ 16(43)] | 3
13 | UCUGAGGGAAACAGGUUUUGCUCCUCGGA (mixed, as 16(21) with dT3) [SEQ 16(42)] | 1
14 | UCUGAGGGAAACAGGUUUUGCUCCUCGGA (ssRNA, as 16(4) with PS at A10) [SEQ 16(7)] | 7.3
15 | UCUGAGGGGAACAGGUUUUGCUCCUCGGA (ssRNA, 2'-F pyrimidines, 2'-OH purines) [SEQ 33] | 690
16 | B1 | 26
17 | UCUGAGGGAAACAGGUUUUGCUCCUCGGA (mixed, as 16(21) with 5' 80 kDa PEG (GL4-800GS2)-ssH linker instead of 5' idT) [SEQ 16(45)] | 13
18 | UCUGAGGGAAACAGGUUUCGCUCCUCGGA (ssRNA, 2'-F pyrimidines, 2'-OH purines) [SEQ 32] | 55
19 | UCUGAGGGAAACAGGUUUUGCUCCUCGGA (mixed, as 16(4) with dG14) [SEQ 16(5)] | 6.7
20 | AGGGAAACAGGUUUUGCUCCU (ssRNA, 2'-F pyrimidines, 2'-OH purines) [SEQ 21] | 710
21 | B2 | 22
22 | UCUGAGGGAAACAGGUUUUGCUCCUCGGA (ssRNA, 2'-F pyrimidines, 2'-OH purines) [SEQ 16] | 12

Row | Binder | IC50 [nM]
23 | UGAGGGAAACAGGUUUUGCUCCUCG (ssRNA, 2'-F pyrimidines, 2'-OH purines) [SEQ 17] | 37
24 | UCUGAGGGAAACAGGUUUUGCUCCUCGGA (ssRNA, as 16(2) + 5' and 3' idT (G14 printed lower case, probably typo)) [SEQ 16(4)] | 17
25 | UCUGAGGGAAACAGGUUUUGCUCCUCGGA (mixed, as 16(4) with dG8) [SEQ 16(14)] | 6.3
26 | UCUGGGGGAAACAGGUUUUGCUCCCCGGA (ssRNA, 2'-F pyrimidines, 2'-OH purines) [SEQ 44] | 38
27 | ACUGCUUGAAACAGGUUUUGCUGAGCAGU (ssRNA, 2'-F pyrimidines, 2'-OH purines) [SEQ 24] | 33
28 | UCUGAGGGAAACAGGUUUUGCUCCUCGGA (mixed, as 16(21) with dC23 dC26) [SEQ 16(38)] | 1.3
29 | UCUGAGGGAAACAGGUUUUGCUCCUCGGA (mixed, as 16(38) with 5' 40 kDa PEG (GL2-400GS2)-ssH linker instead of 5' idT) [SEQ 16(39)] | 3.8
30 | CGAGGGAAACAGGUUUUGCUCCUCG (ssRNA, 2'-F pyrimidines, 2'-OH purines) [SEQ 19] | 36
31 | B3 | 49
32 | UCUGAGGGAAACAGGUUUUGCUCCUCGGA (mixed, as 16(21) with dC23 dC24 dC26) [SEQ 16(33)] | 0.6
33 | UCUGAGGGAAACAGGUUUUGCUCCUCGGA (mixed, as 16(4) with dT25 dC26) [SEQ 16(11)] | 27
34 | UCUGAGGGAAACAGGUCUUGCUCCUCGGA (ssRNA, 2'-F pyrimidines, 2'-OH purines) [SEQ 41] | 43
35 | CCGCUCUGAGGGAAACAGGUUUUGCUCCUCGGAGCGG (ssRNA, 2'-F pyrimidines, 2'-OH purines) [SEQ 15] | 7
36 | UCUGAGGGAAACAGGUUUUGCUCCUCGGA (mixed, as 16(4) with dT19) [SEQ 16(16)] | 45
37 | UCUGAGGGAAACAGGUUUUGCUCCUCGGA (mixed, as 16(4) with dT17) [SEQ 16(18)] | 29
38 | UUUGAAGGAAACAGGUUUUGCUCUUCGAG (ssRNA, 2'-F pyrimidines, 2'-OH purines) [SEQ 51] | 85
39 | GAGGGAAACAGGUUUUGCUCCUC (ssRNA, 2'-F pyrimidines, 2'-OH purines) [SEQ 20] | 100
40 | UCUGAGGGAAACAGGUUUUGCUCCUCGGA (mixed, as 16(33) with PS at A10) [SEQ 16(37)] | 0.25
41 | UCUGAGGGAAACAGGUUUUGCUCCUCGGA (mixed, as 16(21) with dT1 dC23 dC26) [SEQ 16(47)] | 2.4
42 | UCUGAGGGAAACAGGUUUUGCUCCUCGGA (mixed, as 16(32) with 5' 40 kDa PEG (GL2-400GS2)-ssH linker instead of 5' idT) [SEQ 16(34)] | 4.2
43 | UCUGAGGGAAACAGGUUUUGCUCCUCGAA (ssRNA, 2'-F pyrimidines, 2'-OH purines) [SEQ 45] | 29
44 | UCUGAGGGAAACAGGUUUUGCUCCUCGGA (ssRNA, 2'-F all pyrimidines; 2'-OMe G4 A5 G6 G7 G27 G28 A29; other purines 2'-OH) [SEQ 16(1)] | 17

Row | Binder | IC50 [nM]
45 | UCUGAGGGAAACAGGUUUUGCUCCUCGGA (ssRNA, as 16(4) with 5' 40 kDa PEG (GL2-400TS)-ssH linker instead of 5' idT) [SEQ 16(8)] | 42
46 | UCUGAGGGAAACAGGUUUUGCUCCUCGGA (mixed, as 16(4) with dT1 dC2 dT3) [SEQ 16(10)] | 21
47 | CUGAGGGAAACAGGUUUUGCUCCUCGG (ssRNA, 2'-F pyrimidines, 2'-OH purines) [SEQ 18] | 34
48 | UCUGAGGGAAACAGGUUUUGCUCCUCGGA (ssRNA, as 16(4) with 5' 80 kDa PEG (GL2-800TS)-ssH linker instead of 5' idT) [SEQ 16(9)] | 32
49 | UCUGAGGGAAACAGGUUUUGCUCCUCGGA (mixed, as 16(47) with dA10 and phosphorodithioate at A10) [SEQ 16(68)] | 1.7
50 | UCUGAGGGAAACAGGUUUUGCUCCUCAGA (ssRNA, 2'-F pyrimidines, 2'-OH purines) [SEQ 30] | 50
51 | UCCGAGGGAAACAGGUUUUGCUCCUCGGA (ssRNA, 2'-F pyrimidines, 2'-OH purines) [SEQ 29] | 53
52 | UCUGAGGGAAACAGGUUUUGCUCCUCGGA (mixed, as 16(43) with PS at A10) [SEQ 16(44)] | 2.8
53 | UCUGAGGGAAACAGGCUUUGCUCCUCGGA (ssRNA, 2'-F pyrimidines, 2'-OH purines) [SEQ 31] | 130
54 | UCUGAGGGAAACAGGUUUUGCUCCUCGGA (mixed, as 16(33) with 5' 40 kDa PEG (GL2-400GS2)-ssH linker instead of 5' idT) [SEQ 16(35)] | 3
55 | UCCGAGGGAAACAGGUUUUGCUCCUCGCA (ssRNA, 2'-F pyrimidines, 2'-OH purines) [SEQ 47] | 66
56 | UCUGAGGGAAACAGGUUUUGCUCCUCGGA (mixed, as 16(4) with dG14 dG15) [SEQ 16(6)] | 5.9
57 | UCUGAGGGAAACAGGUUUUGCUCCUCGGA (mixed, as 16(47) with PS at A10 and 2'-OMe C2 U3) [SEQ 16(55)] | 0.4
58 | UUCGAGGGAAACAGGUUUUGCUCCUCAAA (ssRNA, 2'-F pyrimidines, 2'-OH purines) [SEQ 52] | 59
59 | UCUGAGGGAAACAGGUUUUGCUCCUCGGA (mixed, as 16(4) with dC21) [SEQ 16(15)] | 77
60 | UCUGAGGGUAACAGGUUUUGCUCCUCGGA (ssRNA, 2'-F pyrimidines, 2'-OH purines) [SEQ 40] | 49
61 | UCUGAGGGAAACAGGUUUUGCUCCUCGGA (mixed, as 16(32) with PS at A10) [SEQ 16(36)] | 0.3
62 | UCUGAGGGAGACAGGUUUUGCUCCUCGGA (ssRNA, 2'-F pyrimidines, 2'-OH purines) [SEQ 34] | 340
63 | UCUGAGGGAAACAGGUUUUGCUCCUCGGA (mixed, as 16(45) with PS at A10) [SEQ 16(46)] | 2
64 | UCUGAGGGAAACAGGUUUUGCUCCUCGGA (ssRNA, as 16(1) + 5' and 3' idT) [SEQ 16(3)] | 10
